How the values were obtained:
[1] = substrate: OC[C@H]1O[C@@](CO)(O[C@H]2O[C@H](CO)[C@@H](O)[C@H](O)[C@H]2O)[C@@H](O)[C@@H]1O; experiment: Inhibition of SI-catalyzed hydrolysis of sucrose (SI/sucrose), coupled HK/G6PDH optical test; type: biochemical, hog; details: other: SI/sucrose basic kinetics, substrate, mean, 37° C., pH 7.0
Protocol: A) The activity of the SI enzyme complex was studied using three different substrates, that is to say sucrose, maltose and isomaltose.
B) In the methods described hereinafter for determining the enzyme activity of sucrase/isomaltase and glucoamylase/maltase under the influence of the substances tested, the amount of glucose or fructose released was determined as measured parameter. […] The measurement was made at 37° C. and a pH of 7.0.
(§1) In individual tests, the semimicro assay was used, but this was reduced in some cases to a micro assay.
(§2) C) Before the inhibitor strengths were determined, for each enzyme-substrate combination basic kinetics were established in which not only the Michaelis-Menten constant (KM [mmol/l]) but also the maximum velocity (Vmax [μmol/mLmin]) were determined. […]
(§3) The level of the inhibitor concentrations used depended on the strength of the resulting inhibition. […] The inhibitor constants Ki and Kii were, unless stated otherwise, determined from secondary Lineweaver-Burk plots.

[2] = substrate: OC[C@H]1O[C@H](O[C@H]2[C@H](O)[C@@H](O)[C@H](O)O[C@@H]2CO)[C@H](O)[C@@H](O)[C@@H]1O; experiment: Inhibition of SI-catalyzed hydrolysis of maltose (SI/maltose), coupled HK/G6PDH optical test; type: biochemical, hog; details: other: SI/maltose basic kinetics, substrate, mean, 37° C., pH 7.0
Protocol: The maltase activity was studied using the substrate maltose.
B) In the methods described hereinafter for determining the enzyme activity of sucrase/isomaltase and glucoamylase/maltase under the influence of the substances tested, the amount of glucose or fructose released was determined as measured parameter. This took place in an enzymatic optical test using hexokinase (HK) and glucose-6-phosphate dehydrogenase (G6PDH) as a coupled detection system (Beutler, H.-O.; in: Methods of Enzymatic Analysis; Bergmeyer, H. U.; Bergmeyer, J.; Graβl, M. (editors); 3rd edition; Vol. VI, 2–10). The measurement was made at 37° C. and a pH of 7.0.
as §1, §2, §3

B1: sucrase/isomaltase (SI) (Sus scrofa) (protein)
chain: MARKKFSGLEISLIVLFAIVTIIAIALVVVLATKTPAVEEISDSTSTPATTRTTTPYPGSGKCPSELNDPINERINCIPDQFPTQTLCATRGCCWKPWNDSIIPWCFFVDNHGYNVEGTTSTNTGLEAKLNRIPSPTLFGDDINSVLLTTQSQTPNRFRFKITDPNNRRYEVPHQFVKEFSGTAASDTLYDVQVIENPFSIKIIRKSNNRILFDTSIGPLVYSDQYLQLSARLSSEYIYGIGEHIHKRFRHDLYWKTWPIFTRDQLPGDNNNNLYGHQTFFMCIEDTSGKSFGVFLMNSNAMEIFIQPTPIVTYRIIGGILDFYIFLGDTPEQVVQQYQELIGRPAMPAYWSLGFQLSRWDYKSLDVVKEVVQRNREAGIPFDTQVTDIDYMEDKKDFTYDHVAFNGLPEFVQDLHDHGQKYVIILDPAISIQKLASGAAYETYDRGTAQNVWINESDGTTAIIGEVWPGLTVYPDFTSPNCIEWWANECSIFHQVVNYDGLWIDMNEVSSFVHGSEKGCSDNKLNYPPFTPGILDKLLYAKTVCMDSVQYWGKQYDVHSLYGYSMAIATEKAVEKVFRNKRSFILTRSTFAGSGSHAAHWLGDNTASWEQMEWSITGMLEFSLFGIPLVGADICGFVVETTEELCRRWMQLGAFYPFSRNHNAQGYEHQDPAFFGQNSLLVNSSKHYLNIRYTLLPFLYTLFYKAHMFGETVVRPILHEFYEDTNSWIEDTQFLWGPSLLITPVLKQGASTVSAYIPNATWYDYETGAKRPWRKQRVDMYLPADKIGLHLRGGYIIPIQQPAVTTTASRKNPLGLIVALDEYNTAEGDFFWDDGETKDTIQNGSYIFYTFSVSNNKLDIMCTHSSYQEGTTLAFETIKILGLIDAVTEVSVVEGDQPMSAHYNFTYDASNQYLLIYNLKFNLGRNFTVQWDQTFLDAEKFTCYPDTDTITKELCEERGCLWQESHLESKAPECFFPKEDNSYLVQSTQYSSLGVTADLQLNTASTRIKLPSDPIPTLRVEVKYHKDYMLQFKIYDPQNKRYEVPVPLNIPTTPTSTYENRLYDVEIKENPFGIQIRRRSTGKVIWDSRLPGFAFNNQFIQISTRLPSEYIYGFGEVEHTAFKRDLNWNTWGMFTRDQPPGYKLNSYGFHPYYMALEDESHAHGVLLLNSNAMDVTFQPTPALTYRIIGGILDFYMFLGPSPEVATKQYHEVIGRPVMPPYWALGFQLCRYGYRNTSQVEEVYNDMVTAQIPYDVQYTDIDYMERQLDFTIGEEFRELPKFVDKIRNEGMRYIIILDPAISGNETEPYPAFDRGQEKDVFVKWPNTSDICWAKVWPDLPNVTIDESLTEDEAVNASRAHVAFPDFFRNSTAEWWAREIIDFYNNQMKFDGLWIDMNEPSSFVNGTTTNQCRNTELNYPPYFPELTKRTEGLHFRTMCMETEQILSDGSSVLHYDVHNLYGWSQVKPTYDALQKATGKRGIVISRSTYPTAGRWAGHWLGDNYAKWDNLDKSIIGMMEFSLFGISYTGADICGFFNNSEYQLCARWMQLGAFYPYSRNHNIAFTRRQDPASWNETFSEMSRNILNIRYTLLPYFYTQMHEIHAYGGTVIRPLLHEFFNEKPTWDIFKQFLWGPAFLVTPVLEPFADTVQGYVPNARWFDYHTGKDIGIRETFHIFSAPLYEINLHVRGGHILPCQEPAQNTFFSRQNFMKLIVAADDNQTAQGNLFWDDGETIDTYERDLYFLVQFNFNKSILTSTILKNSYINRNEMRLGYVLIWGKEKTSVNEVNLIYNGNKETVPFVEDLNQEILNIDLRGLNVTLDEPIEISWS
notes: isolated by papain digestion from hog small intestine mucosa and enriched by ammoniumsulfate precipitation; from tissue; host or cells: hog small intestine mucosa
Km [1]: 58.8 ± 11.4 mM | Vmax [1]: 7700 µM/min | Km [2]: 11.2 ± 2.6 mM | Vmax [2]: 5900 µM/min
